The record followed here is publication PMC12305709, “Functional investigation of the RNA helicase MOV10 with respect to its interplay with factors involved in nonsense-mediated mRNA decay” (The Journal of Biological Chemistry, 2025).

Series [1] deals with GST-MOV10NTD-UPF1hel (human) (UniProt Q92900).
The target in series [2] is T1, UPF1 (Homo sapiens, UniProt Q92900-2 115-914).
T1 sequence: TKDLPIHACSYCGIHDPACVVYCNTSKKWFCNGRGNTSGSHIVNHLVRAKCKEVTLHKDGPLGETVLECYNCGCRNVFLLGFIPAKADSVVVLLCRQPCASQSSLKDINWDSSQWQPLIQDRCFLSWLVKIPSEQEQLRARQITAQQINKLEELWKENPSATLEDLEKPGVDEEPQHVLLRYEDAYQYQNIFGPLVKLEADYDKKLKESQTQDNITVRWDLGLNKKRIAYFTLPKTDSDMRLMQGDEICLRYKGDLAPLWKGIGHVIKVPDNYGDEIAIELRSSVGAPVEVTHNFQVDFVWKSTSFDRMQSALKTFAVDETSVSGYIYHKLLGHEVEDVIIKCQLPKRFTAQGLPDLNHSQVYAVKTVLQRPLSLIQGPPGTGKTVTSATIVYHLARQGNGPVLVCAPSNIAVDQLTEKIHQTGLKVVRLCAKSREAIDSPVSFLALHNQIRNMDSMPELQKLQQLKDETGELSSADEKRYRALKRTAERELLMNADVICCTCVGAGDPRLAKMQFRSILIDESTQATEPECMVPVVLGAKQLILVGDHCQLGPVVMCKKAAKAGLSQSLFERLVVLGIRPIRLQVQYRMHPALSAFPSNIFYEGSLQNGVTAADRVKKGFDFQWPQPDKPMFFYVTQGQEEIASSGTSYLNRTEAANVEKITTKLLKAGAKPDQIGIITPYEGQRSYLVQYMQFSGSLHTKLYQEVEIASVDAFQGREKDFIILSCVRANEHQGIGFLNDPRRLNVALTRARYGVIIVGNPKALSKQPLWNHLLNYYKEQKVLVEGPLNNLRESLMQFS

In series [3] the target is T2, MOV10NTD-UPF1hel (Chimera 3) (Homo sapiens, UniProt Q9HCE1 1-264+=GSAGAAGSGA+Q92900-2:295-914, internal_change).
T2 sequence: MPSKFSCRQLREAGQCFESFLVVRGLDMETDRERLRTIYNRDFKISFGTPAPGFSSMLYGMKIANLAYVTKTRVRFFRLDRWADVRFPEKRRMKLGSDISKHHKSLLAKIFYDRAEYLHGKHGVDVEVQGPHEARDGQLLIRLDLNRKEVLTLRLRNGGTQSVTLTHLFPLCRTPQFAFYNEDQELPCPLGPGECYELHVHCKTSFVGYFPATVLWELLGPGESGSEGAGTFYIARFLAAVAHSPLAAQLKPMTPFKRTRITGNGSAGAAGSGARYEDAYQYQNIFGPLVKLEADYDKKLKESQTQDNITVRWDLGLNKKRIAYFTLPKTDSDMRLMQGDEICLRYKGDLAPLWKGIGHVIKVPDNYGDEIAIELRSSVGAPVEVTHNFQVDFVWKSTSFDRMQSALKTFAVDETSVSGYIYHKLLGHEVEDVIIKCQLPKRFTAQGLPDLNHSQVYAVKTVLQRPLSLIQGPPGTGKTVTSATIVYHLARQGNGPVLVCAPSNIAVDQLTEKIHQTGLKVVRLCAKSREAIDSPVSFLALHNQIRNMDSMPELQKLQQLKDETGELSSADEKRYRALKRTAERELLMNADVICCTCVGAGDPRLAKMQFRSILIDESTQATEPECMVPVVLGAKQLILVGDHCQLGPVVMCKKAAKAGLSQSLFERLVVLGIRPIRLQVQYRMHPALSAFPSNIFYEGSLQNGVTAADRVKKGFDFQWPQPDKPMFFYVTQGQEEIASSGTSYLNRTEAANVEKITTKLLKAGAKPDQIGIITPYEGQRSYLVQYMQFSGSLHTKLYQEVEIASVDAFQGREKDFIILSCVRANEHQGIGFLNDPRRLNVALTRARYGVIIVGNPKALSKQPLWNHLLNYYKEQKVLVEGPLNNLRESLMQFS
As to the kind of experiment: fluorescence anisotropy; no nucleotide; 1 mM Mg2+; 20 mM Hepes pH 7.5, 100 mM NaCl, 1 mM MgCl2, 100 ug/ml BSA; 5 nM RNA; 30 min room temperature, read at 25 C. Conditions: protein: recombinant; tags: 6xHis, His-Trx or His-GST fusion in E. coli; label: 5' 6-FAM; single strand. (In fluorescence polarisation assays a small probe gives low polarisation when free and higher when bound to something large.)

The target of series [4] is T1, UPF1. Kind of series: fluorescence anisotropy; no nucleotide; affinity comparable to P1; Kd only in figure; 20 mM Hepes pH 7.5, 100 mM NaCl, 1 mM MgCl2, 100 ug/ml BSA; 5 nM RNA; 30 min room temperature, read at 25 C. Conditions: protein: recombinant; tags: 6xHis, His-Trx or His-GST fusion in E. coli; label: 5' 6-FAM; single strand.
The next series has as its target T3, Flag-MOV10hel (human, UniProt Q9HCE1 289-1001).
T3 construct: MOV10, human, helicase core, residues 289-1001; also called helicase core of MOV10; source: HEK293, transfected, immunopurified on anti-Flag M2 agarose
T3 sequence (looked up): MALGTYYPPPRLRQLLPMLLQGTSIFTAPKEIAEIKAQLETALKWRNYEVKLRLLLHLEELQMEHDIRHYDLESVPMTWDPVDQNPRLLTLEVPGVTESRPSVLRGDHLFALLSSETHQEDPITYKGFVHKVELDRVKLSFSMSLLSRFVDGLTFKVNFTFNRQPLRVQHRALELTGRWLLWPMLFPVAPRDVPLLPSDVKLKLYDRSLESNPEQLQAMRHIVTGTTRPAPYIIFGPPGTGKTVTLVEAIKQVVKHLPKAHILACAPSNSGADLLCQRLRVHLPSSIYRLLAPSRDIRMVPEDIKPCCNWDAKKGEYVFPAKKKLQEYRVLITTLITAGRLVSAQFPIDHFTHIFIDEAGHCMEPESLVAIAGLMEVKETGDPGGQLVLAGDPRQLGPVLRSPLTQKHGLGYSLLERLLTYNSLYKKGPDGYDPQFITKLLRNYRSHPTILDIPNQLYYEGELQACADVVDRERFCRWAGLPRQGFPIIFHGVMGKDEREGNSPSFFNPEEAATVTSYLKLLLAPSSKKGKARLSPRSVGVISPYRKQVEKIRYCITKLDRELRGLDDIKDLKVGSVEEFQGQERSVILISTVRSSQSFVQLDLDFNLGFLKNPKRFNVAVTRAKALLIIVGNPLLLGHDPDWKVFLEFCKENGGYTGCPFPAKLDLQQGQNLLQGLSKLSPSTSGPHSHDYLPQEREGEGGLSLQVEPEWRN
Kind of series: co-IP; as a2, but cell lysates treated with RNase A (60 ug/uL, 10 min, 25 C); SDS-PAGE, Coomassie, densitometry of the UPF2 band. Conditions: both partners purified.

GST-MOV10NTD-UPF1hel (human), sequence (Q92900 whole entry, looked up): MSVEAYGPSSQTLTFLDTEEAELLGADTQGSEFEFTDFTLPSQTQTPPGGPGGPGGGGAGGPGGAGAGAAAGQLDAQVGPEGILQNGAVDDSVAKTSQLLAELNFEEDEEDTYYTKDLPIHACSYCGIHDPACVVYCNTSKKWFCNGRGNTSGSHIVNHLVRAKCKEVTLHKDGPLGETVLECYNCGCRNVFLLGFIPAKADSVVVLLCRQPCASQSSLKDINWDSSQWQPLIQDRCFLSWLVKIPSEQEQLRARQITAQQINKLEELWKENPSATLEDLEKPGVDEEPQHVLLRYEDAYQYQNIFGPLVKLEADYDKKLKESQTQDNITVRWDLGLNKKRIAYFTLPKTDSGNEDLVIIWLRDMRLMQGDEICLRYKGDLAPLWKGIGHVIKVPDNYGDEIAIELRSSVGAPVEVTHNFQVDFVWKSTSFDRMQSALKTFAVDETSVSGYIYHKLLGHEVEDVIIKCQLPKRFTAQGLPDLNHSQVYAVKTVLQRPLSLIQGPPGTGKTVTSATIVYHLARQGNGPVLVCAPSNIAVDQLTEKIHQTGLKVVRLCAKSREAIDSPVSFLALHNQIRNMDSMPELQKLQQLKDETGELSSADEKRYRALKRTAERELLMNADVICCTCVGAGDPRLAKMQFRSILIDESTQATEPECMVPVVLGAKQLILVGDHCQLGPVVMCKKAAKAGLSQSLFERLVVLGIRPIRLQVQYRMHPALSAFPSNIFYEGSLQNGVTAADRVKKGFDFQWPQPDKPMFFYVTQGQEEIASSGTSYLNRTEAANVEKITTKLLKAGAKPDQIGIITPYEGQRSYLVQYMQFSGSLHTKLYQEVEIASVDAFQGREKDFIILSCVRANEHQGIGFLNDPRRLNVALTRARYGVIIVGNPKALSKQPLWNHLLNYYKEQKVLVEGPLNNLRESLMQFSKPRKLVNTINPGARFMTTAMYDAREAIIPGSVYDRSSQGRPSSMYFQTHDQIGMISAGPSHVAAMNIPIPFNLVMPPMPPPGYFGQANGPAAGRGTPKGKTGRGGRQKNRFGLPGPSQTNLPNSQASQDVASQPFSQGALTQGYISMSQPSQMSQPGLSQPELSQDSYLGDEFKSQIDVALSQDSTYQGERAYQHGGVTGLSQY

In series [1], UPF2s (domain or fragment) returned an RNA-dependent ATPase activity of MOV10NTD-UPF1hel upon addition of UPF2 (1.5-fold excess), against the chimera alone of 1.1 fold and a nucleic acid unwinding activity of MOV10NTD-UPF1hel (300 nM) upon addition of UPF2 (600 nM), against the chimera alone of 1.25 fold. Moreover, the RNA-dependent ATPase activity of UPF1 upon addition of UPF2 (1.5-fold excess), against UPF1 alone with UPF1 [2] stood at 2.4 fold.

The Kd is a measure of binding affinity in units of concentration. On to UUUUUUUUUUUU (ssRNA) [U12 RNA], for which, in series [3], the Kd came to 36 nM. Moreover, in the series with UPF1 [4], the binding result is “binds”.

B1: UPF2 (near full-length variant, residues 121-1227) (domain or fragment, human, UniProt Q9HAU5 121-1227, looked up)
chain: MKEKEESIQLHQEAWERHHLRKELRSKNQNAPDSRPEENFFSRLDSSLKKNTAFVKKLKTITEQQRDSLSHDFNGLNLSKYIAEAVASIVEAKLKISDVNCAVHLCSLFHQRYADFAPSLLQVWKKHFEARKEEKTPNITKLRTDLRFIAELTIVGIFTDKEGLSLIYEQLKNIINADRESHTHVSVVISFCRHCGDDIAGLVPRKVKSAAEKFNLSFPPSEIISPEKQQPFQNLLKEYFTSLTKHLKRDHRELQNTERQNRRILHSKGELSEDRHKQYEEFAMSYQKLLANSQSLADLLDENMPDLPQDKPTPEEHGPGIDIFTPGKPGEYDLEGGIWEDEDARNFYENLIDLKAFVPAILFKDNEKSCQNKESNKDDTKEAKESKENKEVSSPDDLELELENLEINDDTLELEGGDEAEDLTKKLLDEQEQEDEEASTGSHLKLIVDAFLQQLPNCVNRDLIDKAAMDFCMNMNTKANRKKLVRALFIVPRQRLDLLPFYARLVATLHPCMSDVAEDLCSMLRGDFRFHVRKKDQINIETKNKTVRFIGELTKFKMFTKNDTLHCLKMLLSDFSHHHIEMACTLLETCGRFLFRSPESHLRTSVLLEQMMRKKQAMHLDARYVTMVENAYYYCNPPPAEKTVKKKRPPLQEYVRKLLYKDLSKVTTEKVLRQMRKLPWQDQEVKDYVICCMINIWNVKYNSIHCVANLLAGLVLYQEDVGIHVVDGVLEDIRLGMEVNQPKFNQRRISSAKFLGELYNYRMVESAVIFRTLYSFTSFGVNPDGSPSSLDPPEHLFRIRLVCTILDTCGQYFDRGSSKRKLDCFLVYFQRYVWWKKSLEVWTKDHPFPIDIDYMISDTLELLRPKIKLCNSLEESIRQVQDLEREFLIKLGLVNDKDSKDSMTEGENLEEDEEEEEGGAETEEQSGNESEVNEPEEEEGSDNDDDEGEEEEEENTDYLTDSNKENETDEENTEVMIKGGGLKHVPCVEDEDFIQALDKMMLENLQQRSGESVKVHQLDVAIPLHLKSQLRKGPPLGGGEGEAESADTMPFVMLTRKGNKQQFKILNVPMSSQLAANHWNQQQAEQEERMRMKKLTLDINERQEQED
notes: UPF2, human, residues 121-1227; also called near full-length UPF2
As for B1, the “fold less UPF2 coprecipitated than with Flag-MOV10fl and Flag-MOV10NTD” value with Flag-MOV10hel is approximately 4 fold less.
